Experimental data: IntAct's records for PubMed 19763089

B1: NF-kappa-B essential modulator (Mus musculus), O88522 (parent)
chain: MNKHPWKNQLSEMVQPSGGPAEDQDMLGEESSLGKPAMLHLPSEQGTPETLQRCLEENQELRDAIRQSNQMLRERCEELLHFQVSQREEKEFLMCKFQEARKLVERLSLEKLDLRSQREQALKELEQLKKCQQQMAEDKASVKAQVTSLLGELQESQSRLEAATKDRQALEGRIRAVSEQVRQLESEREVLQQQHSVQVDQLRMQNQSVEAALRMERQAASEEKRKLAQLQAAYHQLFQDYDSHIKSSKGMQLEDLRQQLQQAEEALVAKQELIDKLKEEAEQHKIVMETVPVLKAQADIYKADFQAERHAREKLVEKKEYLQEQLEQLQREFNKLKVGCHESARIEDMRKRHVETPQPPLLPAPAHHSFHLALSNQRRSPPEEPPDFCCPKCQYQAPDMDTLQIHVMECIE

Key:
ubc_human UBC, P0CG48 [1] = variants of: B1; settings: with ubc_human UBC
ubc_human UBC, P0CG48, sequence (P0CG48 whole entry, looked up): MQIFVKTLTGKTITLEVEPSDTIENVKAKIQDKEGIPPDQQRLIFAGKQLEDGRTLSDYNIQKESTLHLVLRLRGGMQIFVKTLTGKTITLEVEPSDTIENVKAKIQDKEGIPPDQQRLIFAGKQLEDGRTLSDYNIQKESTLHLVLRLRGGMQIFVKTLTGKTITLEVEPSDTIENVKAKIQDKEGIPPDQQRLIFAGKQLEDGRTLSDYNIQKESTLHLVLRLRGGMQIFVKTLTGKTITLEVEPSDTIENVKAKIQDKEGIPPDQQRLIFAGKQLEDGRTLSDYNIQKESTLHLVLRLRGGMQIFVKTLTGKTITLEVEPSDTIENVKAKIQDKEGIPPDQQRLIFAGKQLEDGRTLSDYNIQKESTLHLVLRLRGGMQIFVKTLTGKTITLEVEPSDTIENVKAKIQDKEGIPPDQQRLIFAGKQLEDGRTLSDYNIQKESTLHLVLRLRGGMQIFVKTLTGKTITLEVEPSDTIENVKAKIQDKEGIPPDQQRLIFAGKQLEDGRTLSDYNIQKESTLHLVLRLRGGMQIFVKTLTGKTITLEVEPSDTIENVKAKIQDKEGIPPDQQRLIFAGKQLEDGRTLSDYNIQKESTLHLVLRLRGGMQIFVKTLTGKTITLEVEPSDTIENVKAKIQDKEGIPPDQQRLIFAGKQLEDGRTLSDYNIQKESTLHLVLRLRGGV

ubc_human UBC, P0CG48 [2] = variants of: B1; settings: with ubc_human UBC; remark: listed apart in the source

Variant	effect of a mutation on the interaction (ubc_human UBC, P0CG48 [1])	effect of a mutation on the interaction (ubc_human UBC, P0CG48 [2])
MNKHPWKNQLSEMVQPSGGPAEDQDMLGEESSLGKPAMLHLPSEQGTPETLQRCLEENQELRDAIRQSNQMLRERCEELLHFQVSQREEKEFLMCKFQEARKLVERLSLEKLDLRSQREQALKELEQLKKCQQQMAEDKASVKAQVTSLLGELQESQSRLEAATKDRQALEGRIRAVSEQVRQLESEREVLQQQHSVQVDQLRMQNQSVEAALRMERQAASEEKRKLAQLQAAYHQLFQDYDSHIKSSKGMQLEDLRQQLQQAEEALVAKQELIDKLKEEAEQHKIVMETVPVLKAQADISKADFQAERHAREKLVEKKEYLQEQLEQLQREFNKLKVGCHESARIEDMRKRHVETPQPPLLPAPAHHSFHLALSNQRRSPPEEPPDFCCPKCQYQAPDMDTLQIHVMECIE [Y301S]	disrupting interaction	decreasing interaction
MNKHPWKNQLSEMVQPSGGPAEDQDMLGEESSLGKPAMLHLPSEQGTPETLQRCLEENQELRDAIRQSNQMLRERCEELLHFQVSQREEKEFLMCKFQEARKLVERLSLEKLDLRSQREQALKELEQLKKCQQQMAEDKASVKAQVTSLLGELQESQSRLEAATKDRQALEGRIRAVSEQVRQLESEREVLQQQHSVQVDQLRMQNQSVEAALRMERQAASEEKRKLAQLQAAYHQLFQDYDSHIKSSKGMQLEDLRQQLQQAEEALVAKQELIDKLKEEAEQHKIVMETVPVLKAQADIYKANFQAERHAREKLVEKKEYLQEQLEQLQREFNKLKVGCHESARIEDMRKRHVETPQPPLLPAPAHHSFHLALSNQRRSPPEEPPDFCCPKCQYQAPDMDTLQIHVMECIE [D304N]	disrupting interaction	decreasing interaction
